This series concerns the target Sox21aHMG-BD (Drosophila melanogaster, UniProt M9PFG6 108-208). As to the kind of experiment: EMSA; 25 mM HEPES pH 7.5, 40 mM KCl, 3 mM DTT, 10% glycerol, 0.1 mM EDTA, 0.5 mg/ml BSA, 0.5 mg/ml poly-glutamate, 25 C, 30 min; 6% native PAGE. As to conditions: protein: recombinant; tags: His-tag at C-terminus (pET-28b); label: Cy5.

Sequence of Sox21aHMG-BD (M9PFG6 entry or part of it): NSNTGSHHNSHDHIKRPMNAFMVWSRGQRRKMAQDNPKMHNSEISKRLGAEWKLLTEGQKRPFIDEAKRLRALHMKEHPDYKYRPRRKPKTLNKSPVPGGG

B1: F2-4-3 mutant probe (dsDNA)
DNA 1: GAACGCACGAGCAGACACTCAACAAAATACCGCGATACATACCAGAAAGTGTGCGATAGC
DNA 2: GCTATCGCACACTTTCTGGTATGTATCGCGGTATTTTGTTGAGTGTCTGCTCGTGCGTTC
Consider B1, for which the binding result was “no binding”.

B2: F2-4-3 wild-type probe (dsDNA)
DNA 1: GAATTTGTTGTTCAACACTCAACAAAATACCGCGATACATACCAGAAAGTGTGCGATAGC
DNA 2: GCTATCGCACACTTTCTGGTATGTATCGCGGTATTTTGTTGAGTGTTGAACAACAAATTC
For B2, the binding result was “binds”.

Source of the values: PMC10234410, “Regulation of intestinal stem cell activity by a mitotic cell cycle regulator Polo in Drosophila”.
